The values that follow come from patent US20050050588, “Systemic small RNA signaling system in plants” (published 2005).

The target of series [1] is T1, CmPSRB1 (recombinant PSRB1) (Cucurbita maxima).
T1 chain: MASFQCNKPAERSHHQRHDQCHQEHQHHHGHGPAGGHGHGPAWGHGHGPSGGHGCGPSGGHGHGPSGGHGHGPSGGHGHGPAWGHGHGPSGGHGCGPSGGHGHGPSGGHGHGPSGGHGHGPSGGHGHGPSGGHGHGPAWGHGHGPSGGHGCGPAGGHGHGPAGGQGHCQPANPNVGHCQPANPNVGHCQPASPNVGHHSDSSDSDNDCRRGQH
The series is described as follows: cell_activity. As to conditions: cell-to-cell movement, binding not directly measured.

Series [2] deals with T2, CMV movement protein (CMV-MP) (Cucumber mosaic virus) (UniProt Q83252).
T2 sequence: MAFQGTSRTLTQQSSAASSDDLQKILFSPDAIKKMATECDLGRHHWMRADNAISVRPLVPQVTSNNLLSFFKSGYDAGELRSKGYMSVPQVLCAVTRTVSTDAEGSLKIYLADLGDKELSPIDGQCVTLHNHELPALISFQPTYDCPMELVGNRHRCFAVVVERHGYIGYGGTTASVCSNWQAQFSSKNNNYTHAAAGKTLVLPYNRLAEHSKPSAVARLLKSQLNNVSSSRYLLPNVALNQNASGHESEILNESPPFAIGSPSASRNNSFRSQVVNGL
The series is described as follows: cell_activity.

Series [3] concerns the target T3, KNOTTED1 (KN1) (UniProt P24345).
T3 sequence: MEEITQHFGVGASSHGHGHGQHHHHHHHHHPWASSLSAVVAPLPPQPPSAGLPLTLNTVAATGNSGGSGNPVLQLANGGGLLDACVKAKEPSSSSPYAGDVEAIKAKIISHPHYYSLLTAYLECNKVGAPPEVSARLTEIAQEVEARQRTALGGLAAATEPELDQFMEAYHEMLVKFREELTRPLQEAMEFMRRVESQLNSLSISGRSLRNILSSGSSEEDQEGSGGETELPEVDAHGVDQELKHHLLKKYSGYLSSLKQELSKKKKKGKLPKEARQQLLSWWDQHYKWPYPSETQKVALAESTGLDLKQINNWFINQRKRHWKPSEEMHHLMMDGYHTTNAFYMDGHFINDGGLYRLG
The series is described as follows: cell_activity.

Series [4] deals with T1, CmPSRB1 (recombinant PSRB1). The series is described as follows: EMSA; competition gel shift; 20 mM Hepes pH 7.0, 50 mM KCl, 1 mM EDTA, 30 C. Particulars: tags: none (native, pET15b, E. coli); 3' 2 nt overhang. As to the method: Electrophoretic mobility-shift assays were carried out as described (S12). Reactions were assembled on ice in 10 μl of binding buffer (20 mM Hepes, pH 7.0, 50 mM KCl, 1 mM EDTA, 1 mM DTT, and 5% [v/v] glycerol). An equal amount of ³²P end-labeled 25 nt ss- or dsRNA was used in assays with various concentrations of purified and desalted R-CmPSRB1. Reaction mixtures were incubated at 30° C. for 20 min and then placed on ice. Reactions were then resolved on a 5% (v/v) nondenaturing polyacrylamide gel that was pre-run for 30 min at 50 V. Electrophoresis was typically carried out at 4° C. and 200 V. The gel was then dried and autoradiographed.
For orientation: A gel shift assay detects complexes by their altered migration in electrophoresis.

As to 25 nt ssDNA, the activity (% injections with movement) in series [1] (0 of 14) amounted to 0.

In turn, 25 nt dsRNA (overhang type not stated) showed an activity (% injections with movement) in series [2] (with FITC-dextran, 0 of 13) of 0.

In the case of KN1 RNA (antisense), the activity (% injections with movement) in series [3] (CITED includes previous studies (S13), 2 of 10, cited from earlier work) is 20.

Regarding GGAAAACUACCUGUUCCAUGGCCAA, the activity (% injections with movement) in series [2] (cell-to-cell movement, 0 of 10) is 0.

Regarding KN1 RNA (sense), in series [3] (CITED includes previous studies (S13), 20 of 22, cited from earlier work), the activity (% injections with movement) was 91.

On to CmRINGP RNA (1 kb), for which the activity (% injections with movement) in series [2] (cell-to-cell movement, 10 of 10) is 100; in series [3] (cell-to-cell movement, 0 of 12) it was 0; in series [1] (0 of 8), 0.

B1: 25 nt dsRNA 3' 2 nt overhang (FK221/FK224) (dsRNA)
RNA 1: GGAAAACUACCUGUUCCAUGGCCAA
RNA 2: GGCCAUGGAACAGGUAGUUUUCCAG
The term Kd denotes a measure of binding affinity in units of concentration. With B1, in series [4], the Kd turned out to be 30.6 µM.
